Where “and” joins values, the source holds several entries; their conditions need not be identical. Identical values can stand only once.

The results in this text go back to FireProtDB (doi:10.1074/jbc.m707838200).

For this series the following is noted: Staphylococcus aureus; pH 7; 25 °C; Thermal; CD; Hepes-NaOH 20 mM; NaCl 170 mM; reversible: Yes; whole UniProt chain shown.

B1: wild type, Q9EYL5 (protein)
chain: MTKKLLTLFIVSMLILTACGKKESATTSSKNGKPLVVVYGDYKCPYCKELDEKVMPKLRKNYIDNHKVEYQFVNLAFLGKDSIVGSRASHAVLMYAPKSFLDFQKQLFAAQQDENKEWLTKELLDKHIKQLHLDKETENKIIKDYKTKDSKSWKAAEKDKKIAKDNHIKTTPTAFINGEKVEDPYDYESYEKLLKDKIK
As for B1, the unfolding free energy is 30.1 kJ/mol and 29.9 kJ/mol.
